Target: the molecule itself
Experiment: SEC; Superdex 75 on HPLC, absorbance at 280 nm; 100 μM peptide in buffer pH 5.0 (100 mM MES, 100 mM KCl) at 25 °C, aliquots at 0, 5, 10, 15 and 30 min of the aggregation reaction; soluble WT peptide at the same concentration as control

B1: TTR 26–57 peptide bearing the K35L substitution (peptide)
peptide: not shown
notes: transthyretin (TTR), human, residues 26-57 with K35L; also called K35L peptide; 26–57 K35L; source: synthetic peptide; bought: Genemed Synthesis
stoichiometry N: 10 to 15 units

From article PMC4192486, “The Importance of a Gatekeeper Residue on the Aggregation of Transthyretin” (The Journal of Biological Chemistry, 2014)
